Laboratory results taken from article PMC4288179, “Synergic interplay of the La motif, RRM1 and the interdomain linker of LARP6 in the recognition of collagen mRNA expands the RNA binding repertoire of the La module”.
Changes are numbered by the printed parent chain.

Tests used:
[1] = molecular target: T1, HsLARP6 La module (70-300) (Homo sapiens, UniProt Q9BRS8 70-300); assay: ITC; 200 mM KCl; ITC: 20 mM Tris pH 7.25, 100 mM KCl, 5 mM MgCl2, 1 mM DTT, 298 K; protein titrated into RNA; conditions: protein: recombinant; tags: N-terminal His6, TEV-cleaved for initial ITC; stem-loop with internal bulge
T1 sequence: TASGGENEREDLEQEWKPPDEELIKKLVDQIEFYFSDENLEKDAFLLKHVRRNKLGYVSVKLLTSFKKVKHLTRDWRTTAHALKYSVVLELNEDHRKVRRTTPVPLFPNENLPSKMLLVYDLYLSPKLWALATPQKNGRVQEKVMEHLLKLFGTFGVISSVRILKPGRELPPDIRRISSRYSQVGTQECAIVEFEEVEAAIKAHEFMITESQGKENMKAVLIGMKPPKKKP

Interlinker chimera = molecular target: T2, Interlinker chimera (Homo sapiens, UniProt Q9BRS8 70-178+P05455:101-111+181-300, internal_change); assay: ITC; text says 500-fold decrease; table gives about 14-fold; ITC: 20 mM Tris pH 7.25, 100 mM KCl, 5 mM MgCl2, 1 mM DTT, 298 K; protein titrated into RNA; conditions: protein: recombinant; tags: N-terminal His6 (TEV-cleavable); stem-loop with internal bulge
T2 sequence: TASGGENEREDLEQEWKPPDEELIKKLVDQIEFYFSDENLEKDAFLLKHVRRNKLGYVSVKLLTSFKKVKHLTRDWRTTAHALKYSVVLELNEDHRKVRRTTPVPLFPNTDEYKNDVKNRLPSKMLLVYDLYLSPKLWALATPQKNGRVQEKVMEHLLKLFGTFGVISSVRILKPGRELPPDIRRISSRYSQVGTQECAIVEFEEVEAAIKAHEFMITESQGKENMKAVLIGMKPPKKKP

[2] = molecular target: T1, HsLARP6 La module (70-300); assay: ITC; ITC: 20 mM Tris pH 7.25, 100 mM KCl, 5 mM MgCl2, 1 mM DTT, 298 K; protein titrated into RNA; conditions: protein: recombinant; tags: N-terminal His6, TEV-cleaved for initial ITC; stem-loop with internal bulge
HsLARP6(70-300) L187A = molecular target: T3, HsLARP6(70-300) L187A (Homo sapiens, UniProt Q9BRS8 70-300, L187A); assay: as above; conditions: protein: recombinant; tags: N-terminal His6 (TEV-cleavable); stem-loop with internal bulge
T3 sequence: T1 sequence with L118A

HsLARP6(70-300) F135A = molecular target: T4, HsLARP6(70-300) F135A (Homo sapiens, UniProt Q9BRS8 70-300, F135A); assay: as above; conditions: protein: recombinant; tags: N-terminal His6 (TEV-cleavable); stem-loop with internal bulge
T4 sequence: T1 sequence with F66A

Loop1 chimera = molecular target: T5, Loop1 chimera (Homo sapiens, UniProt Q9BRS8 70-189+P05455:116-122+209-300, internal_change); assay: as above; conditions: protein: recombinant; tags: N-terminal His6 (TEV-cleavable); stem-loop with internal bulge
T5 sequence: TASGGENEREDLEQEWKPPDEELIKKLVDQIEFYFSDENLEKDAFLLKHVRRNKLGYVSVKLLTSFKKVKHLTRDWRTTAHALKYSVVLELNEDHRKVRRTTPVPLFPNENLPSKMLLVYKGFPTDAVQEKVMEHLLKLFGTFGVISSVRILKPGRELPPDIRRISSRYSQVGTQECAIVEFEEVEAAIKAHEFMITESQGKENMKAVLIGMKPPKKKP

Which Kd [1] does the source give for CCACAAAGAGUCUACAUGUCUAGGGUCUAGACAUGUUCAGCUUUGUGG (structured_RNA) [48 nt RNA (collagen alpha1(I) 5' UTR SL)] here?
Its Kd is 50 nM.

What about the Kd (Interlinker chimera) of the same binder?
The Kd was 667 nM.

And the Kd [2]?
The Kd was 48 nM.

And the Kd (HsLARP6(70-300) L187A)?
Its Kd is 19 nM.

Does CCACAAAGAGUCUACAUGUCUAGGGUCUAGACAUGUUCAGCUUUGUGG (structured_RNA) [48 nt RNA (collagen alpha1(I) 5' UTR SL)] bind (HsLARP6(70-300) F135A)?
Result: no binding

And the Kd (Loop1 chimera)?
Its Kd is 18 nM.
